According to article PMC10873205:

Molecular target: UBR4_(xtal) (UBR4 residues 4,730–5,183) (human) (UniProt Q5T4S7)
Experiment: ITC; UBR4 construct in the cell (74 μM), UBE2A in the syringe at tenfold higher concentration; 25 °C; 0.4 µl then 13 injections of 3 µl; UBE2A into buffer subtracted; single site binding model

Chain of UBE2A (P49459 whole entry): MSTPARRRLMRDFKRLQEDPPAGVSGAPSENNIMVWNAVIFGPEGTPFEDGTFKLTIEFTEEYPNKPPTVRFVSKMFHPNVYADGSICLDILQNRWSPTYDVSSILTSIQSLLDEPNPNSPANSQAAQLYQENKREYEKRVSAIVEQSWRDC
Chain of UBR4_(xtal) (UBR4 residues 4,730–5,183) (human) (Q5T4S7 4730-5183): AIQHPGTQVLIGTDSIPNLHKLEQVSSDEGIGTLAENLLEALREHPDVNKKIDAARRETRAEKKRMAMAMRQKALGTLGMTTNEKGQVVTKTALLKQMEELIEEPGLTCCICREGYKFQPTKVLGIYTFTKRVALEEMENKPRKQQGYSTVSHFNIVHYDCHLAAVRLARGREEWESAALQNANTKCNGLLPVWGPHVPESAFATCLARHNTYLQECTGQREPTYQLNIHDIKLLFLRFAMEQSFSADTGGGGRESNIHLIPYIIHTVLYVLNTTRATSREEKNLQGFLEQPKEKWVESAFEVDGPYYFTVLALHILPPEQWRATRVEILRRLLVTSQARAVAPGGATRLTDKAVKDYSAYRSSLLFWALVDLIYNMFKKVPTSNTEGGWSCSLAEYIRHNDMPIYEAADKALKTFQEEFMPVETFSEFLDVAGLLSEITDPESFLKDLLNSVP

UBE2A (from UniProt P49459 1-152) (enzyme)
dH: -13.9 kcal/mol
